# In the nanobody polyreactivity screen of Harvey et al. (2022):
# Assay: yeast display, Sf9 membrane polyspecificity reagent, FACS + sequencing; frameworks hold sequencing errors
# How it was run: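 Galactose induction of a Saccharomyces cerevisiae BJ5465 synthetic nanobody display library ran 36–48 hours. The cells were then stained for 1 hour at 4 °C with 10% biotinylated, detergent-solubilized Sf9 membrane reagent, pulled down on streptavidin microbeads and FACS-sorted into low and high (top ~1%) gates on expression and reagent-binding fluorescence. Labels for polyreactivity follow the gate of origin.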
row,Sequence,polyreactivity (PSR sort gate)
1,QVQLVESGGGLVQAGGSLRLSCAASGFTFTYNAMGWYRQAPGKERELVAGISWRGGTTYYADSVKGRFTISRDNAKNTVYLQMNSLKPEDTAVYYCAARNYYRGSGWPSNRGYYWGQGTQVTVSS,high polyreactivity
2,QVQLVESGGGLVQAGGSLRLSCAASGFTFTYNDMGWYRQAPGKEREFVAAISSTGGSTNYADSVKGRFTISRDNAKNTVYLQMNSLKPEDTAGYYCATESYDSYGLYDYWGQGTQVTVSS,low polyreactivity
3,QVQLVESGGGLVQAGGSLRLSCAASGFTFTYNDMGWYRQAPGKEREFVAAISSTGGSTYYADSVKGRFTISRDNAKNTVYLQMNSLIPEDTAVYYCAAEDSWYWDAWFDYWGQGTQVTVSS,low polyreactivity
4,QVQLVESGGGLVQAGGSLRLSCAASGFTFTYNDMGWYRQAPGKEREFVAAISSTGGSTYYADSVQGRFTISRDNAKNTVYLQMNSLKPEDTAVYYCAAEDSWYWDAWFDYWGQGTQVTVSS,low polyreactivity
5,QVQLVESGGGLVQAGGSLRLSCAASGFTFTYYAMGWYRQAPGKERELVAGISRSGGSTYYADSVKGRFTISRDNAKNTVYLQMNSLKPEDTAVYYCAATAYSPRGKRYDSWGQGTQVTVSS,high polyreactivity
6,QVQLVESGGGLVQAGGSLRLSCAASGFTFTYYTMGWYRQAPGKERELVAAISYSGGSTYYADSVKGRFTISRDNAKNTVYLQMNSLKPEDTAVYYCNAVTSWAGSLDYWGQGTQVTVSS,high polyreactivity
7,QVQLVESGGGLVQAGGSLRLSCAASGFTFVDNAMGWYRQAPGKERELVAVIDFNDGTTYYADSVKGRFTISRDNAKNSVYLQMNSLKPEDTEVYYCNVDSSLILWVEYDYWGQGTQVTVSS,low polyreactivity
8,QVQLVESGGGLVQAGGSLRLSCAASGFTFVDYAMGWYRQAPGKERELVATINWDSGSTYADSVKGRFTISRDNAKNTVYLQMNSLKPEDSADYYCAADGDEIEVSFYSWGQGTQVTVSS,low polyreactivity
9,QVQLVESGGGLVQAGGSLRLSCAASGFTFVGNAMGWSRQAPGKERELVAAIRWSSGSTYYADSVKGRFTISRDNAKNTVYLQMNSLKPEDTAVYYCAADYWTGITPDAIGDYWGQGTQVTVSS,low polyreactivity
10,QVQLVESGGGLVQAGGSLRLSCAASGFTFVGNAMGWYRQAPGQERELVAAITRGGSTYYADSVKGRFTISRDNAKNTVYLQMNSLKPEDTAVYYCNAELPVHWSWYDYWGQGTQVNVSS,low polyreactivity
11,QVQLVESGGGLVQAGGSLRLSCAASGFTFVINDMGWYRQAPVKERELVADITSGGDTYYADSVKGRFTISRVNAKNTVYLQMYRLKPEDTAVYYCAADIYPDWIYLLYGYWGQGTQVNVSS,low polyreactivity
12,QVQLVESGGGLVQAGGSLRLSCAASGFTFVIYAMGWYRQAPGKERELVAAIRSGGRTYYADSVKGRFTISRDNAKNTVYLQMNSLKPEDTAVYYCAAVPALKWYGYEYWGQGTQVTVSS,high polyreactivity
13,QVQLVESGGGLVQAGGSLRLSCAASGFTFVNYAIGWYRQAPGKERELVAAIRRSGSRTYYADSVKGRFTISRDNAKNTVYLQMNSLKPEDTAVYYCAAVWYRLYGYWGQGTQVTVSS,low polyreactivity
14,QVQLVESGGGLVQAGGSLRLSCAASGFTFVNYAMGWYRQAPGKERELVAASSRSGGRTYYADSVKGRFTISRDNAKNTVYLQKNSLKPEDTAVYYCARLLLSPEYGYWGQGTQVTVSS,high polyreactivity
15,QVQLVESGGGLVQAGGSLRLSCAASGFTFVPYAMGWYRQAPGKERELVAAISSRGDSTYYADSVKGRFTISRDNAKNTVYLQMNSLKPEDTAVYYCNARTTPHMDYWGQGTQVTVSS,low polyreactivity
16,QVQLVESGGGLVQAGGSLRLSCAASGFTFVPYAMGWYRQAPGKERETNADSVKGRFTISRDNAKNTVYLQRNSLKPEDTAVYYCAADVWASRRYDYWGQGTQVTVSS,low polyreactivity
17,QVQLVESGGGLVQAGGSLRLSCAASGFTFVRYTMGWYRQSPGKEREMVAAINRSGGNTYYADSVKGRFTISRDNAKNTVYLQMNSLKPEDTAVYYCAAGYYVQVSLKDYYWGQGTQVTVSS,high polyreactivity
18,QVQLVESGGGLVQAGGSLRLSCAASGFTFVSNDMGWYRQAPGKERELVAAIRYRGGDTYYADSVKGRFTISRDNAKNTVYLQMNRLKPEDTAVYYCAVDVATYTAGWYYHGYDYWGQGTQVTVSS,low polyreactivity
19,QVQLVESGGGLVQAGGSLRLSCAASGFTFVSNDMGWYRQEPGKERELVAAISQGGGSTYYADSVKGRFTISRDNAKNTVYLQINSLKPEDTAVYYCAAEDVYFGYDYWGQGTQVTVSS,low polyreactivity
20,QVQLVESGGGLVQAGGSLRLSCAASGFTFVSYAMGWYRQAPGKERELVAAISKRGGSTSYADSVKGRFTISRDNAKNTVYLQMNSLKPEDTAVYYCNKRSYAWSPHVDYWGQGTQVTVSS,high polyreactivity
21,QVQLVESGGGLVQAGGSLRLSCAASGFTFVSYAMGWYRQAPGKERELVAVISKSGSRTSYAESVKGRFTISRDNAKNTVYLQMNSLKPEDTAVYYCAVFYTRIGPRYDYWGQGTQVTVSS,high polyreactivity
22,QVQLVESGGGLVQAGGSLRLSCAASGFTFVVNAMGWYRQAPGKERELVATIRSNGGSTYYADSVKGRFTISRDNAKNTVYLQMNSLKPEDTAVYYCNTDRKHQSGRESAEMDYWGQGTQVTVSS,low polyreactivity

row,Sequence,polyreactivity (PSR sort gate)
1,QVQLVESGGGLVQAGGSLRLSCAASGFTFVYKDMGWYRQAPGKEREFVAAISSGGSTYYADSVKGRFTISRDNAKNTVYLQMNSLKPEDTAVYYCARRNPGPKHARYGYWGQGTQVNVSS,high polyreactivity
2,QVQLVESGGGLVQAGGSLRLSCAASGFTFVYYAMGCYRQAPGKERELVAAISRSGATTFYADSVKGRFTISRDNAKNTVYLQMNSLKPEDTAVYYCAVDSYAYYYGYWGQGTQVTVSS,high polyreactivity
3,QVQLVESGGGLVQAGGSLRLSCAASGFTFVYYAMGWSRQAPGKERELVAAISRSGATTYYADSVKGRFTISRDNAKNTVYLQMNSLKPEDTAVYYCAAVYRHPRENWPDTRYGYWGQGTQVTVSS,high polyreactivity
4,QVQLVESGGGLVQAGGSLRLSCAASGFTFVYYAMGWYRQAPGKERELVAAISGRGGSTYYADSVKGRFTISRDNAKNTVYLQMNSLKPEDTAVYYCATTYSWYYVPYKPHIYYYWGQGTQVTVSS,low polyreactivity
5,QVQLVESGGGLVQAGGSLRLSCAASGFTFVYYAMGWYRQAPGKERELVATISGNGGRTYYADSVKGRFTISRDNAKNTVYLQMNSLKPEDTAVYYCAADVVTYLSYTLDYWGQGTQVTVSS,low polyreactivity
6,QVQLVESGGGLVQAGGSLRLSCAASGFTFWAYAMGWYRPAPGKERELVARISGSGGRTYYADSVKGRFTISRDNAKNTVYLQMNSLKREDTAVYYCNAPYFNWYGYWGQGTQVTVSS,high polyreactivity
7,QVQLVESGGGLVQAGGSLRLSCAASGFTFWAYAMGWYRQAPGKETELVAAISKTGGRTYYADSVKGRFTISRDNAKNTVYLQMISLKPEDTAVYYCAVDITGLYYPVDYWGQGTQVTVSS,high polyreactivity
8,QVQLVESGGGLVQAGGSLRLSCAASGFTFWDYTMGWYRQAPGKERELVAAITRSGGRTYYADSVKGRFTISRDNAKNTVYLQMNSLKPEDTAVYYCAAKIWSKDEKHDYWGQGTQVTVSS,high polyreactivity
9,QVQLVESGGGLVQAGGSLRLSCAASGFTFWFNAMGWYRQSRGTERELVPTIRRSGGTTYYADSVKGRFTISRDKAKNTVYLQMNSLKPEDTAVYYCAADDYYYPGTVYYFTPGYNYWGQGTQVTVSS,low polyreactivity
10,QVQLVESGGGLVQAGGSLRLSCAASGFTFWKYAMGWYRQAPGKERELVAAISVSGGRTYYADSVKGRFTISRDNAKNTVYLQMNSLKPEDTAVYYCNATPWRPYVGGEYWGQGTQVTVSS,high polyreactivity
11,QVQLVESGGGLVQAGGSLRLSCAASGFTFWLYAMGWYRQAPGKERELVAAITSGGGTYYADSVKGRFTISRDNEKNTVYLQMNSLKPEDTAVYYCAAEWVRDYEQGVSSFGFYYWGQGTQVTVSS,low polyreactivity
12,QVQLVESGGGLVQAGGSLRLSCAASGFTFWPYTMGWYRQAPGKERELVAVISSSGGSTYYADSVKGRFTISRDNAKNTVYLQMNSLKPEDTAVYYCNARRRYGHVDYWGQGTQVTVSS,high polyreactivity
13,QVQLVESGGGLVQAGGSLRLSCAASGFTFWQYAMGWYRQAPGKERELVAAISGSGSSTYYADSVKGRFTISRDNAKNTVYFQMNSLKPEDTAVYYCATAISRYGRYYYWGQGTQVTVSS,high polyreactivity
14,QVQLVESGGGLVQAGGSLRLSCAASGFTFWQYAMGWYRQAPGKERELVAAITSSGTSTNYADSVKGRFTISGDNAKKTVYLQMNSLKPEETAVYYCAADLGYYDLYYWGQGTQVTVSS,low polyreactivity
15,QVQLVESGGGLVQAGGSLRLSCAASGFTFWQYDMGWYRQAPGKERELVAAITSSGSRTYYADSVKGRFTISRDNAKNTVYLQMNSLKPEDTAVYYCNTYLRYWVSYSYDYWGQGTQVTVSS,high polyreactivity
16,QVQLVESGGGLVQAGGSLRLSCAASGFTFWRNALGWYRQAPGKERELVAAISWRGGSTYYADSVKGRFTISRDNAKNTVSLQINSRKPEDTAGYYCNVVYFRYYSGEYDYGGQGTQVTVSS,high polyreactivity
17,QVQLVESGGGLVQAGGSLRLSCAASGFTFWWYAMGWYRQAPGKERELVAAISSGGSTNYADSVKGRFTISRDNAKNTVYLQMNSLKPEDTAVYYCNKDYYGSPSSYYGYDYWGQGTQVTESS,high polyreactivity
18,QVQLVESGGGLVQAGGSLRLSCAASGFTFWYYAMGWYRQAPGKERELVAAISWSGVSTYYADSVKGRFTISRDNAKNTVYLQMNSLKPEDTAVYYCNRRARSYADDYWGQGTQVTVSS,high polyreactivity
19,QVQLVESGGGLVQAGGSLRLSCAASGFTFWYYAMGWYRQAPGKERELVAAITYNGDRTYYADSVKGRFTISRDNAKNTVYLQMNSLKREDTAVYYCAVYLGIRSGTANDYWGQGTQVTVSS,high polyreactivity
20,QVQLVESGGGLVQAGGSLRLSCAASGFTFWYYAMGWYRQAPGKERELVATITSGDSTKYADSVKGRFTISRDNAKNTVYLQMNSLKPEDTAVYYCAAEKVLPFIGYDYWGQGTQVTVSS,low polyreactivity
21,QVQLVESGGGLVQAGGSLRLSCAASGFTFWYYTMGWYRQAPGKERELVAAITRSGGRTYYADSVKGRFTISRDNAKNTVYLQMNSLKPEDTAVYDCAAVGNLYYTSHWQYDYWGQGTQVTVSS,high polyreactivity
